Results: article PMC6145371

Target: tau repeat domain (TauRD) conjugated to cerulean fluorescent protein (CFP) or yellow fluorescent protein (YFP)
Assay: FRET or BRET; HEK293 biosensor cells with TauRD-CFP and TauRD-YFP; samples holding tau seeds (rTg4510 brain lysate 12 h, cell or microglia lysate 36 h, microglia conditioned media 72 h) added with 1% Lipofectamine; CFP to YFP FRET read by flow cytometry as integrated FRET density, normalised to cells given Lipofectamine only

- normalized integrated FRET density (cells given rTg4510 microglia lysate) (normalized IFD): 308
- normalized integrated FRET density (cells given rTg4510 non-microglia cell lysate) (normalized IFD): 3570
Substance: tau repeat domain (TauRD) conjugated to cerulean fluorescent protein (CFP) or yellow fluorescent protein (YFP)
